B1: PGC-1α: S333A (protein)
parent chain: MAWDMCSQDSVWSDIECAALVGEDQPLCPDLPELDLSELDVNDLDTDSFLGGLKWCSDQSEIISNQYNNEPANIFEKIDEENEANLLAVLTETLDSLPVDEDGLPSFDALTDGAVTTDNEASPSSMPDGTPPPQEAEEPSLLKKLLLAPANTQLSYNECSGLSTQNHAANHTHRIRTNPAIVKTENSWSNKAKSICQQQKPQRRPCSELLKYLTTNDDPPHTKPTENRNSSRDKCASKKKSHTQPQSQHAQAKPTTLSLPLTPESPNDPKGSPFENKTIERTLSVELSGTAGLTPPTTPPHKANQDNPFKASPKLKPSCKTVVPPPTKRARYSECSGTQGSHSTKKGPEQSELYAQLSKSSGLSRGHEERKTKRPSLRLFGDHDYCQSLNSKTDILINISQELQDSRQLDFKDASCDWQGHICSSTDSGQCYLRETLEASKQVSPCSTRKQLQDQEIRAELNKHFGHPCQAVFDDKSDKTSELRDGDFSNEQFSKLPVFINSGLAMDGLFDDSEDESDKLSYPWDGTQPYSLFDVSPSCSSFNSPCRDSVSPPKSLFSQRPQRMRSRSRSFSRHRSCSRSPYSRSRSRSPGSRSSSRSCYYYESSHYRHRTHRNSPLYVRSRSRSPYSRRPRYDSYEAYEHERLKRDEYRKEHEKRESERAKQRERQKQKAIEERRVIYVGKIRPDTTRTELRDRFEVFGEIEECTVNLRDDGDSYGFITYRYTCDAFAALENGYTLRRSNETDFELYFCGRKQFFKSNYADLDTNSDDFDPASTKSKYDSLDFDSLLKEAQRSLRR
B2: PGC-1α: OGT overexpression (protein)
parent chain: B1 parent chain

Assays:
[1] = transcriptional activity assay; conditions: glycan lost; control: wild type
[2] = Figure S3B, method not described in text; conditions: glycan lost; control: wild type
[3] = IP, anti-ubiquitin blot with MG132, HEK 293T; conditions: control: wild type

| Protein | other: transcriptional activity [1] | other: phosphorylation [2] | other: ubiquitination ([3]; glycan lost) | other: ubiquitination ([3]; glycan gained) |
| --- | --- | --- | --- | --- |
| B1 | no change | no change | increases |  |
| B2 |  |  |  | decreases |

From paper PMC3480732
